For data set [1], the system named is HeLa Kyoto. Nature of the data set: thermal stability score vs G1/S (z-score of summed log2 fold changes over temperatures); higher = more thermally stable than in G1/S.
Data set [2] concerns HeLa Kyoto. Put plainly: solubility in G1/S (NP-40 vs SDS abundance) (log2 ratio); higher = more soluble. Particulars: cell cycle stage: G1/S.
For data set [3], the system named is HeLa Kyoto. Nature of the data set: solubility change mitosis vs G1/S (difference of NP-40 vs SDS log2 ratios) (log2 ratio difference); higher = more soluble in mitosis.
Data set [4] concerns HeLa Kyoto. Put plainly: melting temperature (median over replicates), in situ; higher = more thermally stable.
Setting [5] is: cell cycle stage: early G1 (4.5 h after nocodazole release).
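For melting temperature (median over replicates), in situ in this document: HeLa Kyoto cells synchronized by double thymidine or nocodazole block, proteins quantified by TMT10plex mass spectrometry, three independent biological replicates.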
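For solubility change mitosis vs G1/S (difference of NP-40 vs SDS log2 ratios) in this document: synchronized HeLa Kyoto cells (double thymidine block for G1/S, nocodazole release for mitosis), protein amounts in NP-40 versus SDS lysates quantified by mass spectrometry, three biological replicates.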
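For solubility in G1/S (NP-40 vs SDS abundance) in this document: HeLa Kyoto cells arrested at G1/S by double thymidine block, proteins quantified by TMT10plex mass spectrometry in mild NP-40 versus SDS extracts, three biological replicates.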
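For thermal stability score vs G1/S (z-score of summed log2 fold changes over temperatures) in this document: synchronized HeLa Kyoto cells, proteins quantified by TMT10plex mass spectrometry, three biological replicates, mitosis taken 0.5 h after nocodazole release, G1/S directly after double thymidine block.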

For the sequence “MEPSSKKLTGRLMLAVGGAVLGSLQFGYNTGVINAPQKVIEEFYNQTWVHRYGESILPTTLTTLWSLSVAIFSVGGMIGSFSVGLFVNRFGRRNSMLMMNLLAFVSAVLMGFSKLGKSFEMLILGRFIIGVYCGLTTGFVPMYVGEVSPTALRGALGTLHQLGIVVGILIAQVFGLDSIMGNKDLWPLLLSIIFIPALLQCIVLPFCPESPRFLLINRNEENRAKSVLKKLRGTADVTHDLQEMKEESRQMMREKKVTILELFRSPAYRQPILIAVVLQLSQQLSGINAVFYYSTSIFEKAGVQQPVYATIGSGIVNTAFTVVSLFVVERAGRRTLHLIGLAGMAGCAILMTIALALLEQLPWMSYLSIVAIFGFVAFFEVGPGPIPWFIVAELFSQGPRPAAIAVAGFSNWTSNFIVGMCFQYVEQLCGPYVFIIFTVLLVLFFIFTYFKVPETKGRTFDEIASGFRQGGASQSDKTPEELFHPLGADSQV [SLC2A1]”, the thermal stability score in the data set on HeLa Kyoto [1] (setting [5]) was -1.89; in the data set with HeLa Kyoto [1] (cell cycle stage: mitosis) it was -3.29. Further, in the data set on HeLa Kyoto [2], the “solubility in G1/S (log2)” value stood at 0.0648. Also, in the data set on HeLa Kyoto [3], the “solubility change mitosis (log2)” value is -0.284. In the data set on HeLa Kyoto [4] (cell cycle stage: G1/S), this sequence had a melting temperature of 57.3 °C.

Consider “MEPTAPSLTEEDLTEVKKDALENLRVYLCEKIIAERHFDHLRAKKILSREDTEEISCRTSSRKRAGKLLDYLQENPKGLDTLVESIRREKTQNFLIQKITDEVLKLRNIKLEHLKGLKCSSCEPFPDGATNNLSRSNSDESNFSEKLRASTVMYHPEGESSTTPFFSTNSSLNLPVLEVGRTENTIFSSTTLPRPGDPGAPPLPPDLQLEEEGTCANSSEMFLPLRSRTVSRQ [BCL10]”, for which the thermal stability score in the data set on HeLa Kyoto [1] (setting [5]) was -0.239; in the data set on HeLa Kyoto [1] (cell cycle stage: mitosis), -0.726. Further, the “solubility in G1/S (log2)” value in the data set on HeLa Kyoto [2] was 0.624. In the data set with HeLa Kyoto [3], the “solubility change mitosis (log2)” value was found to be 0.181. Moreover, the melting temperature in the data set with HeLa Kyoto [4] (cell cycle stage: G1/S) was found to be 49.8 °C; with HeLa Kyoto [4] (cell cycle stage: mitosis), 50.5 °C.

Turning to “MEPVGCCGECRGSSVDPRSTFVLSNLAEVVERVLTFLPAKALLRVACVCRLWRECVRRVLRTHRSVTWISAGLAEAGHLEGHCLVRVVAEELENVRILPHTVLYMADSETFISLEECRGHKRARKRTSMETALALEKLFPKQCQVLGIVTPGIVVTPMGSGSNRPQEIEIGESGFALLFPQIEGIKIQPFHFIKDPKNLTLERHQLTEVGLLDNPELRVVLVFGYNCCKVGASNYLQQVVSTFSDMNIILAGGQVDNLSSLTSEKNPLDIDASGVVGLSFSGHRIQSATVLLNEDVSDEKTAEAAMQRLKAANIPEHNTIGFMFACVGRGFQYYRAKGNVEADAFRKFFPSVPLFGFFGNGEIGCDRIVTGNFILRKCNEVKDDDLFHSYTTIMALIHLGSSK [FBXO22]”, the thermal stability score with HeLa Kyoto [1] (setting [5]) was -9.18; in the data set on HeLa Kyoto [1] (cell cycle stage: mitosis) it was -9.79. Moreover, the “solubility in G1/S (log2)” value in the data set on HeLa Kyoto [2] is -0.097. Besides, the “solubility change mitosis (log2)” value in the data set with HeLa Kyoto [3] was -0.22. Also, the melting temperature was 55.1 °C in the data set on HeLa Kyoto [4] (cell cycle stage: G1/S) and 53.1 °C in the data set with HeLa Kyoto [4] (cell cycle stage: mitosis).

Turning to “MEQLSSANTRFALDLFLALSENNPAGNIFISPFSISSAMAMVFLGTRGNTAAQLSKTFHFNTVEEVHSRFQSLNADINKRGASYILKLANRLYGEKTYNFLPEFLVSTQKTYGADLASVDFQHASEDARKTINQWVKGQTEGKIPELLASGMVDNMTKLVLVNAIYFKGNWKDKFMKEATTNAPFRLNKKDRKTVKMMYQKKKFAYGYIEDLKCRVLELPYQGEELSMVILLPDDIEDESTGLKKIEEQLTLEKLHEWTKPENLDFIEVNVSLPRFKLEESYTLNSDLARLGVQDLFNSSKADLSGMSGARDIFISKIVHKSFVEVNEEGTEAAAATAGIATFCMLMPEENFTADHPFLFFIRHNSSGSILFLGRFSSP [SERPINB1]”, the thermal stability score with HeLa Kyoto [1] (setting [5]) is 1.35; in the data set with HeLa Kyoto [1] (cell cycle stage: mitosis) it was -2.02. Besides, the “solubility in G1/S (log2)” value with HeLa Kyoto [2] is 0.121. Moreover, the “solubility change mitosis (log2)” value in the data set with HeLa Kyoto [3] was -0.165. Moreover, the melting temperature in the data set on HeLa Kyoto [4] (cell cycle stage: G1/S) and in the data set on HeLa Kyoto [4] (cell cycle stage: mitosis) was 53.2 °C in each case.

For “MEQPPAPKSKLKKLSEDSLTKQPEEVFDVLEKLGEGSYGSVFKAIHKESGQVVAIKQVPVESDLQEIIKEISIMQQCDSPYVVKYYGSYFKNTDLWIVMEYCGAGSVSDIIRLRNKTLIEDEIATILKSTLKGLEYLHFMRKIHRDIKAGNILLNTEGHAKLADFGVAGQLTDTMAKRNTVIGTPFWMAPEVIQEIGYNCVADIWSLGITSIEMAEGKPPYADIHPMRAIFMIPTNPPPTFRKPELWSDDFTDFVKKCLVKNPEQRATATQLLQHPFIKNAKPVSILRDLITEAMEIKAKRHEEQQRELEEEEENSDEDELDSHTMVKTSVESVGTMRATSTMSEGAQTMIEHNSTMLESDLGTMVINSEDEEEEDGTMKRNATSPQVQRPSFMDYFDKQDFKNKSHENCNQNMHEPFPMSKNVFPDNWKVPQDGDFDFLKNLSLEELQMRLKALDPMMEREIEELRQRYTAKRQPILDAMDAKKRRQQNF [STK3]”, the thermal stability score with HeLa Kyoto [1] (setting [5]) was found to be 1.31; in the data set with HeLa Kyoto [1] (cell cycle stage: mitosis), 1.36. For the same sequence, in the data set on HeLa Kyoto [2], the “solubility in G1/S (log2)” value came to 0.0428. Further, the “solubility change mitosis (log2)” value in the data set on HeLa Kyoto [3] is -0.13. The results for the melting temperature in the data set on HeLa Kyoto [4] (cell cycle stage: G1/S) and in the data set on HeLa Kyoto [4] (cell cycle stage: mitosis) were 53 °C and 53.3 °C, respectively.

For “MERKISRIHLVSEPSITHFLQVSWEKTLESGFVITLTDGHSAWTGTVSESEISQEADDMAMEKGKYVGELRKALLSGAGPADVYTFNFSKESCYFFFEKNLKDVSFRLGSFNLEKVENPAEVIRELICYCLDTIAENQAKNEHLQKENERLLRDWNDVQGRFEKCVSAKEALETDLYKRFILVLNEKKTKIRSLHNKLLNAAQEREKDIKQEGETAICSEMTADRDPVYDESTDEESENQTDLSGLASAAVSKDDSIISSLDVTDIAPSRKRRQRMQRNLGTEPKMAPQENQLQEKENSRPDSSLPETSKKEHISAENMSLETLRNSSPEDLFDEI [XRCC4]”, the thermal stability score with HeLa Kyoto [1] (setting [5]) is -0.551; in the data set with HeLa Kyoto [1] (cell cycle stage: mitosis) it was -0.497. The “solubility in G1/S (log2)” value in the data set on HeLa Kyoto [2] came out at 0.0124. Besides, the “solubility change mitosis (log2)” value in the data set with HeLa Kyoto [3] was -0.0112. Moreover, the melting temperature in the data set on HeLa Kyoto [4] (cell cycle stage: G1/S) is 55.2 °C; with HeLa Kyoto [4] (cell cycle stage: mitosis), 54.7 °C.

Consider “MERPQPDSMPQDLSEALKEATKEVHTQAENAEFMRNFQKGQVTRDGFKLVMASLYHIYVALEEEIERNKESPVFAPVYFPEELHRKAALEQDLAFWYGPRWQEVIPYTPAMQRYVKRLHEVGRTEPELLVAHAYTRYLGDLSGGQVLKKIAQKALDLPSSGEGLAFFTFPNIASATKFKQLYRSRMNSLEMTPAVRQRVIEEAKTAFLLNIQLFEELQELLTHDTKDQSPSRAPGLRQRASNKVQDSAPVETPRGKPPLNTRSQAPLLRWVLTLSFLVATVAVGLYAM [HMOX1]”, for which the thermal stability score in the data set with HeLa Kyoto [1] (setting [5]) was 0.266; in the data set on HeLa Kyoto [1] (cell cycle stage: mitosis), 0.9. Moreover, the “solubility in G1/S (log2)” value in the data set with HeLa Kyoto [2] came out at 0.553. In the data set on HeLa Kyoto [3], the “solubility change mitosis (log2)” value was -0.0689. The melting temperature was determined as 52.6 °C with HeLa Kyoto [4] (cell cycle stage: G1/S) and 53.9 °C with HeLa Kyoto [4] (cell cycle stage: mitosis).

For the origin of these results see the supplement of paper PMC5998384.
